From US20100028952A1, “FERMENTATION AND PURIFICATION OF ACTINOMADURA CHROMOPROTEIN AND RELATED SPECIES” (WYETH, priority 2006, published 2010)

Key:
Supercoiled φX174 DNA = assay: DNA cleavage assay, gel electrophoresis; type: biochemical
Experimental: Supercoiled φX174 DNA was incubated with various concentrations of the 21G792 chromoprotein and analyzed by gel electrophoresis. […] Nicked refers to single strand breaks in the DNA and linear refers to double strand breaks.

histone H1 in HeLa cells = assay: Digestion of histone H1 in HeLa cells, immunoblot; type: cell-based; conditions: HeLa cells incubated overnight at 37° C.; anti-histone H1 immunoblot
Experimental: To study whether the digestion of histones by the chromoprotein occurs in intact cells, HeLa cells were incubated with compounds overnight at 37° C. Cell lysates were analysed by SDS-PAGE and protein immunoblotting using anti-histone H1 antibodies (Santa Cruz Biotechnologies). […] This activity can contribute to antitumor effects by digesting histones in chromatin, making the DNA more accessible for cleavage. This appears to be a unique activity of the chromoprotein enediynes.

MCF-7 = assay: Potency against human tumor cell lines; type: cell-based; conditions: MCF-7, Breast
BT474 = assay: Potency against human tumor cell lines; type: cell-based; conditions: BT474, Breast
[1] = tested on: HCT116 colon carcinoma cells; assay: Uptake of FITC-tagged chromoprotein and apoprotein, fluorescent microscopy / flow cytometry; type: cell-based
Experimental: To determine the mechanism by which the chromoprotein enters cells and exerts its biological activity, the chromoprotein was labeled with a fluorescent tag (FITC) using EZ-Label fluorescent labeling kit (Pierce Biotechnology), according to the manufacturer's recommendation. […] Uptake of labeled material by HCT116 colon carcinoma cells was studied by fluorescent microscopy. Optimum incubation time with cells was 3-6 hours. […] Even though nuclear accumulation is low, the amount is most likely sufficient for biological activity given the potency of the complex.
To determine whether an intact complex of chromophore and apoprotein is required for cellular and nuclear entry, the chromoprotein and apoprotein were labeled with FITC. Uptake of labeled material was studied by fluorescent microscopy. Uptake was similar for both apoprotein and chromoprotein.
To determine whether the entry of chromoprotein into cells is mediated by a saturable (e.g. cell surface receptor-dependent) process, HCT116 cells were incubated with FITC-labeled chromoprotein (FIG. 37, right panel) or apoprotein (FIG. 37, left panel) in the absence or presence of 10-fold excess of unlabeled reagent (unlabelled chromoprotein or apoprotein, respectively). Cells were analysed by fluorescent microscopy (left) or flow cytometry (right). […] Furthermore, a single homogeneous peak observed in flow cytometry histograms indicated uniform uptake of labeled reagent by all cells. Numbers in the histograms are mean channel numbers (FITC fluorescence).
Other means by which a protein complex can enter cells is pinocytosis, where caveolae in the surface of the cell pinch off to form pinosomes that are free within the cytoplasm of the cell. Since pinocytosis is an energy-dependent process that requires a functional tubulin cytoskeletal network, we examined the effect of sodium azide, an energy uncoupling agent and nocodazole, an agent which disrupts the tubulin cytoskeleton on cellular uptake. HCT116 cells were treated with FITC-labeled apoprotein in the absence or presence of sodium azideor nocodazole. […] Since the data appears to rule out a receptor-mediated process, pinocytosis is most likely involved.

LoVo = assay: Potency against human tumor cell lines; type: cell-based; conditions: Colon

B1: Actinomadura sp. 21G792 chromoprotein: non-covalent complex of an apoprotein and a chromophore comprising a nine-membered enediyne, produced by Actinomadura sp. 21G792 (NRRL 30778) (protein)
chain: DTVTVNYDCVGYPSDIAVTIDAPATAGVGDTATFEVSSVVTTGAPQDLPAGEVVTDMAIVVGGAQSGTITASGLTNEATPAGQPVNMVGGEAQITFTSAGSVTFTPSTTTQVDNGAQCTVVGEAPVGATTVVS
- requirement of a reducing agent for DNA cleavage (Supercoiled φX174 DNA; dithiothreitol, DTT): did not require a reducing agent
- DNA cleavage (Supercoiled φX174 DNA; various concentrations, reaction progressed over 24 hours): induced single strand breaks and double strand breaks
- histone H1 in cells (histone H1 in HeLa cells): reduced histone H1 in cells
- IC50 (MCF-7): 2 µg/mL
- IC50 (BT474): 47 µg/mL
- competition of label by unlabeled reagent ([1]; 10-fold excess of unlabeled reagent): No competition of label was observed
- biological activity upon FITC labeling ([1]; FITC labeled): No loss of biological activity
- uptake of labeled material, apoprotein versus chromoprotein ([1]; FITC labeled): similar
- cellular localisation of label ([1]; FITC labeled, fluorescent microscopy): Most of the label appeared in the cytoplasm, although weak staining was also observed in the nucleus
- IC50 (LoVo): 2 µg/mL
